Test results reported in the supplement of paper PMC9170038.

What was measured:
MS2 coat protein [1] = test: apparent KD of MS2 coat protein, switch ON state; designed switch direction (-1 OFF switch, 1 ON switch): 1; higher = weaker reporter binding; details: FMN input: 0 or 200 uM; Eterna round: R93 (includes R88 designs)
In short: (§1)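 The buffer was 100 mM Tris-HCl pH 7.5 with 80 mM KCl and 4 mM MgCl2, used without or with constant ligand. In it, RNA switches transcribed on-chip from Illumina sequencing clusters were titrated with SNAP-549-labelled MS2 coat protein in twofold steps from 0.7 or 1.5 nM to 3 µM. Apparent KD for each design is the median of its normalised cluster binding-curve fits.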

MS2 coat protein [2] = test: apparent KD of MS2 coat protein, switch OFF state (with FMN for OFF switches, without FMN for ON switches); designed switch direction (-1 OFF switch, 1 ON switch): 1; higher = weaker reporter binding; details: FMN input: 0 or 200 uM; Eterna round: R93 (includes R88 designs)
In short: as §1

Sequence	apparent KD of MS2 coat protein (MS2 coat protein [1])	apparent KD of MS2 coat protein (MS2 coat protein [2])
CCCUCGCAAUAACAGGAUAUACAUGGUCAAACAUGAGGAUCACCCAUGUGAGGAAGUUGGCGGUCGUAGAAGGGUUGUUGGCUCA [Beisvesoqu]	42.8 nM	166 nM
AGAAAUAAAACACAGGAUAUCCAAAAUAAAACAUGAGGAUCACCCAUGUAAAGAAAAGAAAAAUGGGAGAAGGGUGAAAAUAAGA [Mat - Same State 2 - JL mod - D19]	19.4 nM	69.7 nM
AACUAACAUGAGGAUCACCCAUGUAAUCAAACAUGAGGAUAUAUAACACAUCAUCAACAGAUAGAAGGCAUAAAUA [JR_SS001_Sub1203]	80.4 nM	62.7 nM
GGCUGCAAUUAUGAGGAUAUGUUCGGAUGAACAUGAGGAUCACCCAUGUGGCGAUAGCUAUCUGUGCAGAAGGUGUAGUGGUAGC [Edlexete]	38.8 nM	130 nM
AAAUAAAUGACUAAGGAUAUAUCAUAAGAAACAUGAGGAUCACCCAUGUAAUAAUAAAAAGGGUGAUAGAAGGUAGUCAACAAAC [74%, More Paria 4]	19.8 nM	114 nM
GUGUAAAGAAUCGAGGAUAUCCAAAAAAGCACAUGAGGAUCACCCAUGUAAGAGAGAGAAUAAUGGGAGAAGGCGAGUUAUCGGU [JR_SS002_Sub1712]	18.1 nM	64.1 nM
GAAAAACAUGAGGAUCACCCAUGUGGAAAUAUGGGAGGAUAUACAAAGACGGAAGUCAAAGUAGAAGGCCUAAAAG [Mat - Same State 1 - Eli mod - D10]	26.5 nM	119 nM
AAAAAACAUGAGGAUCACCCAUGUCUUCGGACGUGAGGAUAUGUACAGACUUCGGUCUGUACAGAAGGCAUGUAAA [SS1 - 1052]	286 nM	186 nM
AAAAAAAAAACGCAGGAUAUCCAAAAAAAAACAUGAGGAUCACCCAUGUAAAAAAAAAAAAAAUGGGAGAAGGGUGAAAAAAAAAA [Louisiana 6 - Jieux - Same State 2]	49.9 nM	114 nM
AAAAAACAUGAGGAUCACCCAUGUAAUAAAACGUCAGGAUAUUGAUUUUAUUAUUUAUUACAAGAAGGGACAAAAA [Same State 1 - Omei 1]	35 nM	55 nM
GAGAGACAUGAGGAUCACCCAUGUAGGAUUAUGGGAGGAUAUACAAAGACGAGAGUCAGAGUAGAAGGCCUAGGAA [salish99-ss1-137(!)]	24.2 nM	74.4 nM
AAAAACGUGGCGUAGGAUAUACUAAUAUUCACAUGAGGAUCACCCAUGUUCAUAUAUAUGAACGAGUAGAAGGACGACGAAAAAA [Mat - Same state - Malcolm Mod - D106]	29.5 nM	107 nM
GAUAAACAUGAGGAUCACCCAUGUAGAUAUAUGGGAGGAUAUACAAAGACGAUAGUCAAAGUAGAAGGCCUAAUAG [77%, Mat - Mod of Eli - With 4 more U's]	29.6 nM	84 nM
AAAUAAAUGACUAAGGAUAUCUCAGAGAAAACAUGAGGAUCACCCAUGUAAUAAUAACAUGUGUGAGAGAAGGUAGUCAACAAAC [Same State 2.4 (Pariah 4 -changed stack on 9nt hairpin)]	16.1 nM	70.1 nM
AAAAGACAUGAGGAUCACCCAUGUCCUCGGACAUGAGGAUAUGUACAGACUUCGGUCUGUACAGAAGGCAUAAAAA [SS1 - 1063]	71.2 nM	349 nM
CGAAAGUAUGCACAGGAUAUGUACAGGCUAACAUGAGGAUCACCCAUGUGAAAAUGGACCAUGUCGCAGAAGGGUGCCCUCCCGA [Mageor]	22.1 nM	40.2 nM
AUAAAACAUGAGGAUCACCCAUGUAGAAAUAUGGGAGGAUAUACGAGGACGAAAGUCAAAGUAGAAGGCCUAAAAG [Mat - Same State 1 - Meechl mod - D120]	22.7 nM	40.6 nM
UGGAGACAUGAGGAUCACCCAUGUGAGAAGAGGCGAGGAUAUCGAAAAAAAAAAAAAAAACGAGAAGGCGCGAGAA [salish99-SS1-007]	28.9 nM	56.3 nM
AUAAAACAUGAGGAUCACCCAUGUAGAAAUAUGGGAGGAUAUACUAGAUCGAAAGAUCUAGUAGAAGGCCUUUAAG [JL Mod of Eli 4]	29.6 nM	49.9 nM
AAAAGACAUGAGGAUCACCCAUGUGAAAACGUAGGAGGAUAUGUCUGGAAACCAGACUGGACAGAAGGCCUGUGUC [SS1 - 32]	26.7 nM	33.1 nM
GAGGACAUAGUACAGGAUAUAUGAAUAGUCACAUGAGGAUCACCCAUGUCCAUUUAUAUGGGCACAUAGAAGGGUGGUAGUUAUC [SameState2 Malc#27]	24.6 nM	347 nM
GACGAACAUGAGGAUCACCCAUGUAAAAACGUACAAGGAUAUGUGUGGAAACCGUACUAUACAGAAGGUGUCUGUC [SS1 - 96]	37.3 nM	38.6 nM

Sequence	apparent KD of MS2 coat protein (MS2 coat protein [1])	apparent KD of MS2 coat protein (MS2 coat protein [2])
UGGAAACAUGAGGAUCACCCAUGUAAAAGGUGGUUAGGAUAUGCAAAACGGAAAACGAAAGCAGAAGGGACAAAAA [Inspired by JR and Meechl]	130 nM	320 nM
AGGAAACAUGAGGAUCACCCAUGUAUAAAAUAGGGAGGAUAUACUAAGACGAAAGUCAUAGUAGAAGGUCCAAAAA [76%, Meechl, 13]	17.9 nM	23.4 nM
AAGAAACAUGAGGAUCACCCAUGUAAGAUUAUGGGAGGAUAUGCGAAAAGAAACAAAGAAGCAGAAGGCCUAAGAA [75%, Ex5 sub 1, 4]	15.7 nM	77.3 nM
AUAAAAUAAAGUCAGGAUAUCUAUAAUAAAACAUGAGGAUCACCCAUGUUAAAAAAAAGAUCAUGGGAGAAGGGACAAAAUAAAU [SS2 M 32]	27 nM	28.3 nM
AUAAAACAUGAGGAUCACCCAUGUAGAAAUAUGGGAGGAUAUACUAGAUCGAAAGAUCUAGUAGAAGGCCUUUAUA [JL Mod of Eli 6]	19.9 nM	45.9 nM
CGGAAGGAGAGAGAGGAUAUCCAAAGGAAAACAUGAGGAUCACCCAUGUAGAAGGUAGGAAAUUGGGAGAAGGCUCAAGAGAUAG [salish99-ss2-124]	20.6 nM	39.1 nM
CCCAAUGCAACGAAGGAUAUCCGUCAUGCUACAUGAGGAUCACCCAUGUACUGGCAGCGCAAGGCGGAGAAGGUCGGGUGCUGUG [Leusesbe]	12 nM	12.6 nM
AGAAAGAAAAGAGAGGAUAUCUAAAAGAAAACAUGAGGAUCACCCAUGUAAAAGAAAAGAAAAUGGGAGAAGGCUUAUGAGAAAG [JL Skelter Mod 8 In the Red]	107 nM	82 nM
AUGAAUAGCAUCGAGGAUAUCCAGUCAUGAACAUGAGGAUCACCCAUGUAAGAGAGAGUAUAAUGGGAGAAGGCGAGUAAUCGAU [JR_SS002_Sub1703]	40.3 nM	105 nM
AAAAUAAAAUAAAAGGAUAUAAAAUAAAAAACAUGAGGAUCACCCAUGUAAAAACAUGGGAAAAAAAAGAAGGAAAAAUAAAAAA [SS2: 71 No MS2]	603 nM	1280 nM
CUUUCCGCGCUAUAGGAUAUGAAUGAACCUACAUGAGGAUCACCCAUGUCGAACUCGGUCCAAAAUCAGAAGGAUGGCGAGGCGC [Oratis]	119 nM	178 nM
UAUCCGGCAGUGUAGGAUAUGUUGUAGUCAACAUGAGGAUCACCCAUGUGGAUUAUAUAAGAUUCACAGAAGGGCACUGCAUUGC [Geiner]	87.8 nM	74.1 nM
GAAAAACAUGAGGAUCACCCAUGUGAAAACUUGGGAGGAUAUACAAAGACGAAAGUCGAAGUAGAAGGCCUAUAAG [Same State 1.4l (Mat - Mod of Eli - )]	21.1 nM	85.9 nM
AGCGAACAUGAGGAUCACCCAUGUCCCGCGAAUCAAGGAUAUGGGCAGAUGAGUCCUGCGCCAGAAGGUGAGUAAA [Rigeesar]	49.6 nM	132 nM
AAACUGGAGGACAAGGAUAUGUGCUCUACGACAUGAGGAUCACCCAUGUGAGACGUAGUAGUGAAACAGAAGGUGUCCUAUUGUA [Tiarri]	11 nM	20.4 nM
AAAGACGUGCAUCAGGAUAUGUUCCGAGACACAUGAGGAUCACCCAUGUGGACGAAGUCUCGGGCACAGAAGGGAUCACUCAUAA [Latibe]	15.4 nM	21.4 nM
AAAAAACAUGAGGAUCACCCAUGUAAAAAAACAUGAGGAUAUAUAAAAAAAAAAAAAAAGAUAGAAGGCAUAAAUA [JR_SS001_Sub1201]	128 nM	77.4 nM
AUACGUACGUAUGAGGAUAUCCAUAAUAAGACAUGAGGAUCACCCAUGUAAACAAAACAAUAAUGGGAGAAGGCAUACGUACGAU [SS 2 M 50]	47.7 nM	54.8 nM
AAAAAACAUGAGGAUCACCCAUGUCGAAAGACAUGAGGAUAUGUACAGACUUCGGUCUGUACAGAAGGCAUGAAAA [SS1 - 1012]	114 nM	79.3 nM
AAUGAACAUGAGGAUCACCCAUGUUCUAAUAGUUGAGGAUAUAUGGGUGAAAAUAGCACAGUAGAAGGCGAGUGUA [SameState1 Malc#17]	408 nM	262 nM
GAAAUACAUGAGGAUCACCCAUGUUAGGUGGGUCAAGGAUAUUGAGAUAAAUAAAAAUCUCGAGAAGGUGAAUAAA [JR_SS001_Sub202]	87.7 nM	199 nM
